biological target: antibody anti-FITC IgG1 (prepared in-house); test: SPR, Biacore 8K; anti-FITC IgG1 captured on Protein A chip, CD16a protein as analyte

| Kd [µM] | koff [s⁻¹] | kon [M⁻¹ s⁻¹] | Substance |
| --- | --- | --- | --- |
| 0.476 | 0.114 | 240000 | 1626E, recombinant fragment of the extracellular domain of CD16a protein with point mutation V196M (from UniProt P08637 17-208) (receptor) |
| 0.391 | 0.101 | 257000 | 1637E, recombinant fragment of the extracellular domain of CD16a protein with point mutation V196S (from UniProt P08637 17-208) (receptor) |
| 0.576 | 0.113 | 196000 | 1615E, recombinant fragment of the extracellular domain of CD16a protein with point mutation A195V (from UniProt P08637 17-208) (receptor) |
| 0.484 | 0.119 | 245000 | 1600E, recombinant fragment of the extracellular domain of CD16a protein with natural mutation F176V (from UniProt P08637 17-208) (receptor) |
| 0.415 | 0.112 | 270000 | 1625E, recombinant fragment of the extracellular domain of CD16a protein with point mutation V196Q (from UniProt P08637 17-208) (receptor) |
| 0.448 | 0.117 | 260000 | 1630E, recombinant fragment of the extracellular domain of CD16a protein with point mutation S197P (from UniProt P08637 17-208) (receptor) |
| 0.418 | 0.105 | 251000 | 1623E, recombinant fragment of the extracellular domain of CD16a protein with point mutation V196G (from UniProt P08637 17-208) (receptor) |
| 0.402 | 0.107 | 267000 | 1627E, recombinant fragment of the extracellular domain of CD16a protein with point mutation V196H (from UniProt P08637 17-208) (receptor) |
| 0.557 | 0.119 | 214000 | 1602E, recombinant fragment of the extracellular domain of CD16a protein with point mutation Q192P (from UniProt P08637 17-208) (receptor) |
| 0.506 | 0.121 | 240000 | 1635E, recombinant fragment of the extracellular domain of CD16a protein with point mutation L194I (from UniProt P08637 17-208) (receptor) |
| 0.479 | 0.117 | 244000 | 1632E, recombinant fragment of the extracellular domain of CD16a protein with point mutation Q192N (from UniProt P08637 17-208) (receptor) |
| 0.477 | 0.113 | 236000 | 1604E, recombinant fragment of the extracellular domain of CD16a protein with point mutation L194P (from UniProt P08637 17-208) (receptor) |
| 2.6 | 0.258 | 99500 | 1600WE, recombinant fragment of the extracellular domain of wild-type CD16a protein (from UniProt P08637 17-208) (receptor) |

Reference: patent US20260108605A1
